These results are taken from patent US20200157232A1 (TENEOONE, published 2020).

The target in one test is T1, BVP.
T1 construct: polyreactivity control; a protein mixture; also called Baculo Virus Protein Extract; baculovirus protein
Kind of test: ELISA on baculovirus protein extract (BVP). (In general: ELISA stands for enzyme-linked immunosorbent assay.)

The next test has as its target T2, Lambda.
T2 construct: off-target control antigen; also called human lambda protein
Kind of test: ELISA on human lambda protein.

For test [1], the target named is T3, human B-Cell Maturation Antigen (BCMA) (human, UniProt Q02223 1-54, limits assumed).
T3 construct: also called CD269; TNFRSF17
T3 sequence (looked up): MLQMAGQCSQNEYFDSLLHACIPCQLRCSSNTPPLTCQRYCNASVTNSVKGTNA
Kind of test: BioLayer Interferometry, Octet QK384, kinetics mode; bivalent form. In general terms: BLI is a label-free optical method that tracks binding on a fibre tip over time.
Procedure: (§1) As used herein, the “Kd” or “Kd value” refers to a dissociation constant determined by BioLayer Interferometry, using an Octet QK384 instrument (Fortebio Inc., Menlo Park, Calif.) in kinetics mode. For example, anti-mouse Fc sensors are loaded with mouse-Fc fused antigen and then dipped into antibody-containing wells to measure concentration dependent association rates (kon). Antibody dissociation rates (koff) are measured in the final step, where the sensors are dipped into wells containing buffer only. The Kd is the ratio of koff/kon.

Another test deals with T4, HSA (Homo sapiens).
T4 construct: off-target control antigen; also called human serum albumin
T4 sequence (P02768 25-609): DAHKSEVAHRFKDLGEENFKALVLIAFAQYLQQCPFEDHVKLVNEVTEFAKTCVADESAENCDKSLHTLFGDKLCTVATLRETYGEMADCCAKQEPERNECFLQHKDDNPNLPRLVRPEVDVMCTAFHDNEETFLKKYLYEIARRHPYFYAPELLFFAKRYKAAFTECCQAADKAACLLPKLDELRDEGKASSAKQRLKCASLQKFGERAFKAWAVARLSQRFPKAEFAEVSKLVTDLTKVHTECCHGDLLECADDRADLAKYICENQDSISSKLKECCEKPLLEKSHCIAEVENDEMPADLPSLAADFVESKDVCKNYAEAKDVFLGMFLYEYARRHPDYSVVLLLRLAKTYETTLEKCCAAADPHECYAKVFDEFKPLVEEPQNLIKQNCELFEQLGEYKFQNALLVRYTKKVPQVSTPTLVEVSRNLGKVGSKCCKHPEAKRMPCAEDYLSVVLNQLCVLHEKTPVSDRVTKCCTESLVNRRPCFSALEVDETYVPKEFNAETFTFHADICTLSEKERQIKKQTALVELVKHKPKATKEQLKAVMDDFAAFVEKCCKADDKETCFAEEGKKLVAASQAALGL
Kind of test: ELISA on human serum albumin.

The target of test [2] is T3, human B-Cell Maturation Antigen (BCMA). The experiment in a line: ELISA, supernatant UniAb on human BCMA ECD (Abcam ab50089), detection goat anti-human IgG HRP.
Procedure: Supernatants of 6 antibodies were tested for binding in a standard ELISA assay to a human BCMA. Binding to recombinant BCMA protein was determined by ELISA using human BCMA ECD obtained from Abcam (ab50089). The BCMA ECD protein was used at a concentration of 2 μg/mL to capture UniAbs at 50 ng/mL. […] All antibodies were diluted in 1×TBS with 0.05% Tween-20 and 1% dry milk powder.
The target is the same in test [3]. The experiment in a line: BioLayer Interferometry, Octet QK384, kinetics mode.
Procedure: as §1
In a further test the target is T5, IgG1k.
T5 construct: off-target control antigen; also called human IgG1 kappa protein
Kind of test: ELISA, UniAb captures human IgG1 kappa, detection goat anti-human kappa HRP.

Test [4] has as its target T3, human B-Cell Maturation Antigen (BCMA). Kind of test: BioLayer Interferometry, Octet QK384, kinetics mode; monovalent form.
Procedure: as §1

Procedure for BVP: Off-target binding to Baculo Virus Protein Extract (BVP) was conducted by ELISA as above, with the modification of using 1×PBS and 1% dry milk powder for the diluent. BVP extract was obtained from INSERM (Nantes, France).

B1: anti-BCMA heavy chain-only antibody 308902, bivalent form (antibody, V domains shown)
VH: EVQLLESGGGLVQPGGSLRLSCAASGFTVSSYGMSWVRQAPGKGPEWVSGIRGSDGSTYYADSVKGRFTISRDNSKNTLYLQMNSLRAEDTAVYYCAKQGENDGPFDHRGQGTLVTVSS
notes: Heavy chain-only antibody with no light chain; UniAbs were expressed in HEK cells with CH1 deleted; also called UniAb 308902 (bivalent)
Turning to B1, the “ELISA Binding Ratio (expt signal / dilutent only), BVPscore” value with BVP was found to be 1.1. Further, the “ELISA Binding Ratio (expt signal / dilutent only)” value was 1.1 with Lambda, 0.8 with HSA, 868 in test [2] and 1.1 with IgG1k. In test [1], this molecule yielded a Kd of 0.053 nM. In test [3], this molecule yielded an off-rate constant (koff) of 0.000177 s⁻¹. The molecule also yielded a kon in test [3] of 3.38e+06 M⁻¹ s⁻¹.

B2: anti-BCMA heavy chain-only antibody 308902, monovalent form (antibody, V domains shown)
VH: EVQLLESGGGLVQPGGSLRLSCAASGFTVSSYGMSWVRQAPGKGPEWVSGIRGSDGSTYYADSVKGRFTISRDNSKNTLYLQMNSLRAEDTAVYYCAKQGENDGPFDHRGQGTLVTVSS
notes: Heavy chain-only antibody with no light chain; UniAbs were expressed in HEK cells with CH1 deleted; also called UniAb 308902 (monovalent)
For the molecule B2, the Kd in test [4] was found to be 0.779 nM. In addition, in test [3], the koff turned out to be 0.000719 s⁻¹ and the association rate constant (kon) turned out to be 923000 M⁻¹ s⁻¹.

For orientation: koff means a measure of how fast the partners let go of each other. The low end stands for a long-lived complex, the high end for a short-lived complex. What is called kon is the second-order rate constant of association. A high value points to faster complex formation.
